Source: patent US10077319B2, “Anti-PCSK9-GLP-1 fusions and methods for use” (MedImmune, LLC, priority 2014, dated 2018)

Target: human GLP-1 receptor (Homo sapiens, UniProt P43220)
Experiment: cAMP production assay in CHO cells expressing human GLP-1 receptor
Type: cell-based
Conditions: Table 18; for % Max Effect: maximum activation compared to GLP-1
Procedure: Low protein binding 384-well plates (Greiner) were used to perform eleven 1 in 4 serial dilutions of test compound that were made in assay medium (0.1% bovine serum albumin in Hanks Balanced Salt Solution (GIBCO or Sigma), containing 0.5 mM IBMX (Sigma)). All sample dilutions were made in duplicate. […] Cells were then re-suspended in assay buffer at the optimized concentration of 1×10^5 cells/mL and dispensed at 5 uL per well to black shallow-well u-bottom 384-well plates (Corning). 5 μL of test compound was transferred from the dilution plate to the cell plate and incubated at room temperature for 30 minutes. cAMP levels were measured the cAMP dynamic 2 HTRF kit (Cisbio), following the two step protocol as per manufacturer's recommendations. Briefly, anti-cAMP cryptate (donor fluorophore) and cAMP-d2 (acceptor fluorophore) were made up separately by diluting each 1/20 in conjugate & lysis buffer provided in the kit. 5 uL of anti-cAMP cryptate was added to all wells of the assay plate and 5 uL of cAMP-d2 added to all wells except non-specific binding wells, to which only conjugate and lysis buffer was added. […] Data was transformed to % Delta F as described in manufacturer's guidelines and analyzed by unconstrained 4-parameter logistic fit of data, curve mid-point to determine EC50.

human GLP-1 receptor, sequence (P43220 24-463): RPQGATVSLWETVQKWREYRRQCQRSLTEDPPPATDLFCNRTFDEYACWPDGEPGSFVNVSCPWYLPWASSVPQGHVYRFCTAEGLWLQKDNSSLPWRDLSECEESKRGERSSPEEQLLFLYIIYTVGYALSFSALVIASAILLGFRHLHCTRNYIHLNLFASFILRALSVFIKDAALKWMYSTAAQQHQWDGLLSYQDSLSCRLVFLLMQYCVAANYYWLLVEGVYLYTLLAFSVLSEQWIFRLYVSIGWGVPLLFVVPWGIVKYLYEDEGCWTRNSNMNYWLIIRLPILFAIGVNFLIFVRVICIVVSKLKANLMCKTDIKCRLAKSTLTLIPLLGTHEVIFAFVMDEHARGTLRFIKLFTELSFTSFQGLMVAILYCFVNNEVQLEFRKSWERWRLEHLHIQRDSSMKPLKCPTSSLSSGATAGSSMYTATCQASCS

B1: HS9_DSB7_L26G: HS9_DSB7 with peptide point mutation L26G; SEQ ID NO: 469 (protein)
chain: HGEGTFTSDLSKQMEEECVRLFIEWGKNGGPSSGAPPPGCGGGGGSGGGGSGGGGSADIQMTQSPSSLSASVGDRVTITCQASQDVKTAVAWYQQKPGKAPKLLIYSASYRYTGVPSRFSGSGSGTDFTFTISSLQPEDIATYYCQQRYSLWRTFGQGTKLEIK
% Max Effect: 81%

B2: HS9_DSB7_L26E: HS9_DSB7 with peptide point mutation L26E; SEQ ID NO: 470 (protein)
chain: HGEGTFTSDLSKQMEEECVRLFIEWEKNGGPSSGAPPPGCGGGGGSGGGGSGGGGSADIQMTQSPSSLSASVGDRVTITCQASQDVKTAVAWYQQKPGKAPKLLIYSASYRYTGVPSRFSGSGSGTDFTFTISSLQPEDIATYYCQQRYSLWRTFGQGTKLEIK
Potency at huGLP-1R in cAMP assay (M): Inactive
% Max Effect: Inactive

B3: HS9_DSB7_L26D: HS9_DSB7 with peptide point mutation L26D; SEQ ID NO: 471 (protein)
chain: HGEGTFTSDLSKQMEEECVRLFIEWDKNGGPSSGAPPPGCGGGGGSGGGGSGGGGSADIQMTQSPSSLSASVGDRVTITCQASQDVKTAVAWYQQKPGKAPKLLIYSASYRYTGVPSRFSGSGSGTDFTFTISSLQPEDIATYYCQQRYSLWRTFGQGTKLEIK
Potency at huGLP-1R in cAMP assay (M): Inactive
% Max Effect: Inactive
